Experimental data as given in IntAct's records for PubMed 24508339.

B1: Mitochondrial dynamics protein MID51 (Mus musculus), Q8BGV8 (parent)
chain: MAGAGERKGKKDDNGIGTAIDFVLSNARLVLGVGGAAMLGIATLAVKRMYDRAISAPTSPTRLSHSGKRSWEEPNWMGSPRLLNKDMKAGLSRSLQTLPTDSSAFDTDTFCPPRPKPLARRGQVDLKKSRLRMSLQEKLLSYYRNRAAIPAGEQARAKQAAVDICAELRSFLRAKLPDMPLRDMYLSGSLYDDLQVVTADHIQLIVPLVLEQNLWSCIPGEDTIMNVPGFFLVRRENPEYFPRGSSYWDRCVVGGYLSPKTVADTFEKVVAGSINWPAIGSLLDYVIRPAPPPEALTLEVQYEKDKHLVIDFLPSVTLGDTVLVARPHRLAQYDNLWRLSLRPAETARLRALDQADSGCRSLCLKILKAICKSTPALGHLTASQLTNVILHLAQEEADWSPDMLADRFLQALRGLISYLEAGVLPSALNPKVNLFAELTPQEIDELGYTLYCSLSEPEVLLQT

Variants of: B1
Conditions: with Dnm1l

Variant | effect of a mutation on the interaction
V253E;G254E;G255E | disrupting interaction strength
R234A;R235A;N237A | disrupting interaction strength
E239A;Y240A;R243A | decreasing interaction strength

Variants of: B1
Conditions: with Dnm1l
Remark: another data set of the same source

Variant | effect of a mutation on the interaction
E239A;Y240A;R243A | disrupting interaction strength
